Measured values as given in doi:10.1101/2023.05.02.539157, “Toxic anti-phage defense proteins inhibited by intragenic antitoxin proteins” (bioRxiv, 2023).

Columns and labels:
[1] = target: T1, RpnAL* (RpnA_(K240R+E241D+M244L)) (E. coli, UniProt P31667 1-292, K240R | E241D | M244L); test: SEC; Superdex 200 column; individually purified proteins alone and mixed, and the native co-purified RpnALS complex; peak fractions checked by SDS-PAGE; settings: both partners purified
T1 construct: source: E. coli, overexpressed as C-terminally tagged intein fusion protein, purified
T1 sequence (looked up): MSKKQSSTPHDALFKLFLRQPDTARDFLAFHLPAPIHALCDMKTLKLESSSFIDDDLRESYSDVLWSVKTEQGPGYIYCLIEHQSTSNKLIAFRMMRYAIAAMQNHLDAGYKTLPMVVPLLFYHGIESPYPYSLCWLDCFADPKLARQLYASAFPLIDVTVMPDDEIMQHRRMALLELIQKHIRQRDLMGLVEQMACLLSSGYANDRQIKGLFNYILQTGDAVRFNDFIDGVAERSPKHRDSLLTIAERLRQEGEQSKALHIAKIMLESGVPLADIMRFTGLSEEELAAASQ

[2] = target: T2, RpnAL (full-length RpnA, wild type, in the native RpnALS complex) (E. coli, UniProt P31667 1-292); test: SEC-MALS; multi-angle light scattering coupled with size exclusion chromatography of purified RpnAS and of the purified RpnALS complex; settings: both partners purified
T2 construct: source: E. coli, WT rpnA gene in an overexpression vector, C-terminally tagged intein fusion, purified together with RpnAS
T2 sequence (looked up): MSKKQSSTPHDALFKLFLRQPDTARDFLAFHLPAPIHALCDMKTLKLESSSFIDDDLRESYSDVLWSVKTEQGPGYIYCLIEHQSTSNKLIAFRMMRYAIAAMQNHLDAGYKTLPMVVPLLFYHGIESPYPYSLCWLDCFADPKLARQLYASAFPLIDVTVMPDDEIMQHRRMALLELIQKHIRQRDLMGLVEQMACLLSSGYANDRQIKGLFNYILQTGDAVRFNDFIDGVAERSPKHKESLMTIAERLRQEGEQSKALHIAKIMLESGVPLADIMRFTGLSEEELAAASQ

[3] = target: the molecule itself; test: as above

B1: RpnAS (natural protein, E. coli, UniProt P31667 244-292, looked up)
chain: MTIAERLRQEGEQSKALHIAKIMLESGVPLADIMRFTGLSEEELAAASQ
notes: also called RpnS of RpnA; small C-terminal protein of RpnA
- binding result [1]: binds
- stoichiometry N [2]: 1 RpnAS per RpnAL (2:2)
- stoichiometry N [3]: 2
